Assay [1] has as its system Pseudomonas aeruginosa. In words: Impairment of lipase secretion and growth on minimal media-olive oil plates. The class given is cell-based. As to conditions: for growth on minimal media-olive oil agar plates: 10 ug protein, with or without 5% DMSO, olive oil as only carbon source. From the text:
Experiments were thus conducted to assess the ability of At1g74130 proteins or variants to impair the protein secretion process of Pseudomonas aeruginosa, a gram-negative bacterium known to be pathogenic and producers of biofilms. Any impact on the protein secretion mechanism may alter pathogenicity, growth, survival, biofilm production, and sensitivity to antimicrobial drugs. The design of the Pseudomonas assays was similar to that used for bacteria in the above examples, results, and figures. Treated Pseudomonas cells were plated onto minimal media supplemented with olive oil as the only external carbon source. The minimal media-olive oil plates consisted of the following: 50 mM MOPS, pH 7.5; 40 mM K2HPO4; 25 mM NaH2PO4; 7.5 mM (NH4)2SO4; 0.4 mM MgSO4; 0.5% (v/v) olive oil; 40 ug/ml neutral red; 20 ul trace elements (Mn, Co, Zn, Cu, and Mo); and 1.5% agar. Pseudomonas cells need to express and secrete lipases in order to break down the olive oil and allow the acquisition of carbon from the media. Cells that are impaired with respect to protein secretion will not be able to break down the olive oil for acquisition and permit subsequent growth.
Control assays were conducted on cells without added At1g74130 or variants (sensitizer variants) to determine the delivery system to use. Control assays were also conducted to determine if the 5% (v/v) DMSO delivery system used for E. coli exerted any effect. Pseudomonas cells were mock treated with Luria Broth (LB) media or 5% (v/v) DMSO for 45-90 minutes prior to plating on minimal media supplemented with olive oil as the sole external carbon source. Total volumes of 200 μl were used in these assays. The plates were allowed to grow overnight to assess the level of growth or colony formation.
In the experimental assays, the utility of At1g74130 or variants in the Pseudomonas was tested by adding 10 ug protein (At1g74130 or variants) to cells (600-800 cells) incubated for 45 minutes at 37° C., shaken, and followed by another 45 minute period at 37° C. […]

The test system of assay [2] is yeast. In words: Sensitization of yeast to fungicidal agents AmB and Nys. It counts as cell-based, Saccharomyces cerevisiae. The settings on record: for yeast cell survival, variant added alone: 10 ug protein alone in elution buffer, no fungicide; for yeast survival, fungicidal agents together with variant protein: 10 ug protein with sub-lethal AmB and/or Nys. As for the experimental part: Experiments were conducted to assess the ability of the Arabidopsis At1g74130 proteins or variants to sensitize yeast to the antifungal agents Amphotericin B (AmB) and Nystatin (Nys). Overall, these assays were conducted in a manner similar to that designed for bacteria (Example 9). In addition to the components mixed with the added proteins or variants, the antifungal AmB was also utilized as part of the delivery system. The AmB drug contains small quantities of the detergent deoxycholate, which may also assist in the delivery of proteins into the cell, as well as function as a pore forming agent itself. […] The effective co-delivery sub-lethal concentrations of the two antifungal agents or protein had little or no effect when provided individually. FIGS. 17 and 18 show results of the yeast sensitivity assays for AmB and Nys. […] In FIG. 17, the “Yeast Control” bars represent yeast cells given mock treatments with culture media (YPD) alone, YPD plus 1% AmB, YPD plus 0.5% Nys, and YPD plus 1% AmB and 0.5% Nys, respectively. The “BSA Control” bars represent another set of mock treatments with yeast cells. This set utilized the same set-up as the Yeast Control set but with added control bovine serum albumin proteins (BSA) (dissolved in the elution buffer, the same buffer used for the purification of the recombinant At1g74130 rhomboid proteins or variants). These assays represent another variation of negative controls for rhomboid protein. The “Elution Control” bars represent yeast cells mock treated using the same set-up as in the Yeast Control set but with added elution buffer alone. This variation of control assays was designed to assess for potential toxic impacts when combining elution buffer and the listed drugs, as well any effects originating from components of the elution buffer itself. The composition of the elution buffer is provided above in Example 5. With the exception of Nys, these treatments represent the first step and occur for 45 minutes before the second step when exposure to fungicides takes place. Within each set of bars, where applicable, the second 15-minute step treatment occurred with a sub-lethal dose of Nys. After a total of one hour, the treated yeast cells were plated on non-selective YPD agar plates. Plates were grown 2-3 days at 27-30° C. and assessed for surviving cell numbers (measuring cell death). Images were also taken to document cell and colony growth characteristics.
In the experimental assays, the sensitizing properties of At1g74130 or variants (sensitizing variants) were tested by adding 10 ug protein (At1g74130 or variants in elution buffer) to yeast cells (300-500 cells). To reiterate in all cases, the components were added to cultures and mixed for one hour, where Nys was added and incubated for the last 15 minutes of the treatment. Pre-treatment was designed to permit AmB and At1g74130 proteins to establish and work prior to adding Nys. After the one hour incubation, 500 cells were plated on non-selective YPD agar media and grown for 48 hours at 30′C.
The sub-lethal levels of fungicides to use in these assays were determined using dosage experiments. These assays were conducted on yeast cells without added rhomboid proteins or variants. The dosages of AmB tested ranged from 0 to 5% (v/v). […] Likewise, the Nys level was determined using a range of 0.5 to 2.5%. Yeast cells were treated for one hour with fungicides in a total volume of 400 μl YPD media before plating.
Since both the AmB buffer contained small quantities of detergent (deoxycholate being the main one), an experiment was done in which different amounts (1% and 10%) of deoxycholate were added to yeast cells to ascertain any effects. Adding deoxycholate had little effect on yeast.
This set of yeast assays was conducted in the same manner described above (Example 13) and employed the same controls and combinations. […]

Assay [3] relates to bacteria. In words: Sensitization of bacteria to tetracycline by exogenous rhomboid protein. The class given is cell-based, Escherichia coli. As to conditions: tetracycline 15 ug/ml. How it is done: Experiments were conducted to assess the ability and the utility of At1g74130 protein variants to sensitize bacteria to another antibiotic, tetracycline. In bacteria, tolerance or resistance to tetracycline is facilitated by a mechanism different from the ampicillin resistance assayed in Example 9. Unlike the breakdown of ampicillin outside the bacterial cells by secreted ampicilliase, tetracycline resistance in bacteria is based largely on the continual and effective pumping of tetracycline out of the cell by proteinaceous membrane pumps. To assess the utility of the At1g74130 for sensitizing bacteria to tetracycline, these bacterial assays were conducted in the same manner described in Example 9. The same controls and combinations were used. The final treatment level of tetracycline used in place of the ampicillin treatment was 15 ug/ml.
Experiments were conducted to assess the ability and the utility of a human rhomboid type or variant to sensitize bacteria to tetracycline. These bacterial assays were conducted in the same manner described above for the other rhomboid variants and in Example 9. The same controls and combinations were used. The At1g74130 L was the control for UBAC2 in this set of assays. The previously observed behaviours and responses were not observed for UBAC2 in this setting with the antibiotic tetracycline (FIG. 16).

This note sets out measurements from patent US20160129078A1, “Rhomboid Proteins and Uses Thereof” (Queen's University at Kingston, priority 2014, published 2016).

B1: At1g74130 S: 6/7 S-form splice variant of Arabidopsis At1g74130 rhomboid protein (protein, listed as Arabidopsis thaliana)
chain: MHAIFCRRVAVGCSSPQLTKLVTKQASQSRHSLSHLLPFDLSSRFVPPYVVSRSARVHGFFAGKLGNTNLKLKFGNVMESRAGFFSSELPSHGFESGGFTGFQKRGWKSWINGANGVVFGLVIANAAVFTMWRVLGKDNMWMVKNFMLSRYSFMTGRIHTLITSGFSHVGATHIILNMMGLCYFGARIARSFGPRYLLKLYFAGALGGSVFFLSSHALSVISLKGQRVVPKDQLKVPIGKLGANGPVYAITLLDMLLYPKVTTYFGLMLRVPVFAVRESIA
As to B1, the “growth on minimal media-olive oil agar plates” value in assay [1] is given as “most potent impact”. Moreover, in assay [2], the “yeast cell survival, variant added alone” value is “no effect” and the “yeast survival, fungicidal agents together with variant protein” value was “dramatically reduced yeast survival”. The “sensitization of bacteria to tetracycline” value in assay [3] is listed as “no activity”.

B2: At1g74130 M: 7/8 M-form splice variant of Arabidopsis At1g74130 rhomboid protein (protein, listed as Arabidopsis thaliana)
chain: MHAIFCRRVAVGCSSPQLTKLVTKQASQSRHSLSHLLPFDLSSRFVPPYVVSRSARVHGFFAGKLGNTNLKLKFGNVMESRAGFFSSELPSHGFESGGFTGFQKRGWKSWINGANGVVFGLVIANAAVFTMWRVLGKDNMWMVKNFMLSRYSFMTGRIHTLITSGFSHVGATHIILNMMGLCYFGARIARSFGPRYLLKLYFAGALGGSVFFLSSHALSVISLKGQRVVPKDQLKVPIGKLGANGPVYAITLLDMLLYPKVTTYFGLMLRVPVFAGIYSLGLNIIKMLEVCMMGKTTIP
For B2, in assay [1], the “growth on minimal media-olive oil agar plates” value was “reduced”. Also, the lipase secretion result in assay [1] (assay with elution buffer and variant) is recorded as “moderate impairment of lipase secretion”. In assay [2], the “yeast cell survival, variant added alone” value was “no effect” and the “yeast survival, fungicidal agents together with variant protein” value is reported as “dramatically reduced yeast survival”. For the same molecule, in assay [3], the “sensitization of bacteria to tetracycline” value was “increased the sensitivity”.
